# Measurements as given in EP4768039A1, “PHARMACEUTICAL COMPOSITION AND USE THEREOF” (Shanghai Regenelead Therapies Co., Ltd., priority 2023, dated 2025).
# System: not listed separately
# Assay: Temperature sensitivity of pH of different buffers
# Type: physicochemical
# Settings: buffer working solutions, 2 °C to 30 °C; FIG. 17
# Procedure: • 1. About 3 mL of each of different buffers was added to a centrifuge tube. The pH value in the process of cooling from 30 °C to about 2 °C was measured with a pH meter in an ice-water bath and recorded, and then the pH change in the process of heating the solution from 2 °C to 30 °C was recorded. Table 30. Buffering ranges of different buffers
row,pH decrease as the temperature increased by 1 °C,Compound
1,about 0.024,"OCC(CO)(CO)NCCCNC(CO)(CO)CO [BTP, bis-tris propane]"
2,about 0.001,"O=S(=O)(O)CCN1CCN(CCO)CC1 [HEPES, N-2-hydroxyethylpiperazine-N'-2-ethanesulfonic acid]"
3,about 0.024,NC(CO)(CO)CO [Tris]

# System: not given
# Assay: not given
# Settings: pH range of the buffer system; cited from earlier work
row,Compound,Buffering range
1,"OCC(CO)(CO)NCCCNC(CO)(CO)CO [BTP, bis-tris propane]",6.3-9.5
2,"O=S(=O)(O)CCN1CCN(CCO)CC1 [HEPES, N-2-hydroxyethylpiperazine-N'-2-ethanesulfonic acid]",6.8-8.2
3,NC(CO)(CO)CO [Tris],7.0-9.2

# Target: Human VEGF-A protein (human) (UniProt P15692)
# Chain of UniProt P15692 (P15692 other isoform, or with tags, fused parts or gaps limits assumed): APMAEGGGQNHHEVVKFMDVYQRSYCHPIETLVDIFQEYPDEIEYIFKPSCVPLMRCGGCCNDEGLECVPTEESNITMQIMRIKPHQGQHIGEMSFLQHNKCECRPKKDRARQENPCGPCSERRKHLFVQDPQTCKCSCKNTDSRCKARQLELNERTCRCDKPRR
# Assay: cell-based or functional assay
# Settings: not given
row,VEGF-A IC50 (nM); VEGF-A-induced NFAT-RE Luc2P KDR reporter cells [nM],Compound
1,2.71,PR1010(R1D2-R2D3-linker-R2D2-R2D3-Fc) (from UniProt P01857 104-330) (Fc fusion)
2,0.34,PR1094(R1D2-R2D3-linker-R2D2(C162V)-R2D3-Fc) (from UniProt P01857 104-330) (Fc fusion)
3,0.18,PR1109(R1D2-R2D3-linker-R2D2(V219I)-R2D3-Fc) (from UniProt P01857 104-330) (Fc fusion)
4,0.36,PR1114(R1D2-R2D3-linker-R2D2-R2D3(N274I)-Fc) (from UniProt P01857 104-330) (Fc fusion)
5,0.28,PR1115(R1D2-R2D3-linker-R2D2-R2D3(R275L)-Fc) (from UniProt P01857 104-330) (Fc fusion)
6,0.22,PR1118(R1D2-R2D3-linker-R2D2-R2D3(D276Q)-Fc) (from UniProt P01857 104-330) (Fc fusion)
7,0.14,PR1119(R1D2-R2D3-linker-R2D2-R2D3(L277R)-Fc) (from UniProt P01857 104-330) (Fc fusion)
8,0.38,PR1120(R1D2-R2D3-linker-R2D2-R2D3(K278D)-Fc) (from UniProt P01857 104-330) (Fc fusion)
9,0.36,PR1122(R1D2-R2D3-linker-R2D2-R2D3(K278E)-Fc) (from UniProt P01857 104-330) (Fc fusion)
10,0.21,PR1123(R1D2-R2D3-linker-R2D2-R2D3(Q280E)-Fc) (from UniProt P01857 104-330) (Fc fusion)
11,0.29,PR1124(R1D2-R2D3-linker-R2D2-R2D3(S283T)-Fc) (from UniProt P01857 104-330) (Fc fusion)
12,0.23,PR1125(R1D2-R2D3-linker-R2D2-R2D3(E284H)-Fc) (from UniProt P01857 104-330) (Fc fusion)
13,0.7,PR1126(R1D2-R2D3-linker-R2D2-R2D3(F288Y)-Fc) (from UniProt P01857 104-330) (Fc fusion)
14,0.67,PR1129(R1D2-R2D3-linker-R2D2-R2D3(M314S)-Fc) (from UniProt P01857 104-330) (Fc fusion)
15,0.14,PR1136(R1D2-R2D3-linker-R2D2-R2D3(L313R)-Fc) (from UniProt P01857 104-330) (Fc fusion)
16,1.14,PR1141(R1D2-R2D3-linker-R2D2(C162V)-R2D3(N274F)-Fc) (from UniProt P01857 104-330) (Fc fusion)

row,VEGF-A IC50 (nM); VEGF-A-induced NFAT-RE Luc2P KDR reporter cells [nM],Compound
1,0.99,PR1142(R1D2-R2D3-linker-R2D2(C162V)-R2D3(N274I)-Fc) (from UniProt P01857 104-330) (Fc fusion)
2,0.84,PR1143(R1D2-R2D3-linker-R2D2(C162V)-R2D3(R275L)-Fc) (from UniProt P01857 104-330) (Fc fusion)
3,0.98,PR1146(R1D2-R2D3-linker-R2D2(C162V)-R2D3(L289Y)-Fc) (from UniProt P01857 104-330) (Fc fusion)
4,1.16,PR1147(R1D2-R2D3-linker-R2D2(C162V)-R2D3(L313Y)-Fc) (from UniProt P01857 104-330) (Fc fusion)
5,1.49,PR1148(R1D2-R2D3-linker-R2D2(C162V)-R2D3(L277R/L289Y)-Fc) (from UniProt P01857 104-330) (Fc fusion)
6,0.82,PR1149(R1D2-R2D3-linker-R2D2(C162V/Y221S/R222K)-R2D3-Fc) (from UniProt P01857 104-330) (Fc fusion)
7,0.81,PR1150(R1D2-R2D3-linker-R2D2(C162V)-R2D3(L313R)-Fc) (from UniProt P01857 104-330) (Fc fusion)
8,0.92,PR1165(R1D2-R2D3-linker-R2D2(C162I)-R2D3-Fc) (from UniProt P01857 104-330) (Fc fusion)
9,1.12,PR1166(R1D2-R2D3-linker-R2D2(C162L)-R2D3-Fc) (from UniProt P01857 104-330) (Fc fusion)
10,1.1,PR1167(R1D2-R2D3-R2D2(C162V)-R2D3(N274F/S283T)-Fc) (Fc fusion)
11,1.15,PR1168(R1D2-R2D3-R2D2(C162V/Y221S/R222K)-R2D3(N274F)-Fc) (Fc fusion)
12,0.9,PR1169(R1D2-R2D3-R2D2(C162V/Y221S/R222K)-R2D3(S283T)-Fc) (Fc fusion)
13,0.89,PR1170(R1D2-R2D3-R2D2(C162V/Y221S/R222K)-R2D3(N274F/S283T)-Fc) (Fc fusion)
14,1.09,PR1171(R1D2-R2D3-linker-R2D2(C162V)-R2D3(N274F/S283T)-Fc) (from UniProt P01857 104-330) (Fc fusion)
15,0.92,PR1172(R1D2-R2D3-linker-R2D2(C162V/Y221S/R222K)-R2D3(N274F)-Fc) (from UniProt P01857 104-330) (Fc fusion)
16,1.08,PR1173(R1D2-R2D3-linker-R2D2(C162V/Y221S/R222K)-R2D3(S283T)-Fc) (from UniProt P01857 104-330) (Fc fusion)
